For this series, the system named is C[C@@H]1O[C@H](OP(=O)(O)OP(=O)(O)OC[C@H]2O[C@@H](n3cnc4c(=O)[nH]c(N)nc43)[C@H](O)[C@@H]2O)[C@@H](O)[C@H](O)[C@@H]1O. The series can be described thus: purified protein. Particulars: apparent, acceptor LacNAc 3 mM, Tris-HCl pH 7.5, 37 °C.

In general, Km refers to the concentration of substrate that gives half-maximal velocity. As a reminder, the kcat is the maximal rate divided by the concentration of active sites. Broadly, the kcat/Km is the turnover number divided by the Michaelis constant.

Turning to Hp3FT (Helicobacter pylori), the Km worked out at 6.4480 ± 1.1360 mM, the kcat is 0.617 ± 0.0417 s⁻¹ and the catalytic efficiency (kcat/Km) is 96 M⁻¹ s⁻¹.

The record behind these values is paper PMC6613818.
